# Laboratory results: the supplement of paper PMC12764529
# ± gives the half width of the 95% confidence interval.
# Columns and labels:
# [1] = folding stability dG unfold (combined trypsin and chymotrypsin); higher = more stable
# Method in brief: (§1)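 Bayesian fitting of sequencing counts gave K50 for each design. Unfolding free energy followed by setting this against a sequence-predicted unfolded-state K50 and a shared folded-state K50, either per protease or with trypsin and chymotrypsin combined. The designs, under 80 residues and lacking cysteine, were digested in a PA-tagged cDNA display format at 11 threefold-diluted protease concentrations and without protease, and only those with AlphaFold2 dimer inter-PAE above 15 were kept.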
# [2] = folding stability dG unfold from chymotrypsin proteolysis; higher = more stable
# Method in brief: as §1
# [3] = folding stability dG unfold from trypsin proteolysis; higher = more stable
# Method in brief: as §1
Sequence,folding stability dG unfold [1],folding stability dG unfold [2],folding stability dG unfold [3]
SAGGMYRVKVGDDERLIDTDPENFKTLEEAVKKVAEKIKEEYPNRPELTITVEAEDGTPLATVTITLSSAGG [r13_257_JUSTAS],0.894 ± 0.29 kcal/mol,0.614 ± 0.19 kcal/mol,0.759 ± 0.12 kcal/mol
SAGGSAVPAGTTFELRYPEDEGSLTLTYDPSTNTVTITDGDKTTTYSSTSLEEVLKELGAELASRLSAGGSA [r15_500_JUSTAS],1.22 ± 0.09 kcal/mol,1.35 ± 0.094 kcal/mol,0.998 ± 0.041 kcal/mol
SAGGSMTLTGESEEEAKALVEALKEELKKKYPEKPNLEIPVKVIIKDPKTGKETEKVFKVKIPIPKSAGGSA [r2_393_JUSTAS],1.14 ± 0.062 kcal/mol,1.11 ± 0.09 kcal/mol,1.04 ± 0.028 kcal/mol
SAGGSAGGSAGGMPILEIDVAGDSPDIAIETAKAIVDELPTYNPENVKVIIKDGKVIIGSAGGSAGGSAGGS [r10_182_TrMRF],1.25 ± 0.15 kcal/mol,1.66 ± 0.12 kcal/mol,0.498 ± 0.018 kcal/mol
SAGGSAKAEEIAKLLKELGFKEVKIEKDKETNKVTITVKKKDGSEIKITIDKKTKKIVKIEIKPKKSAGGSA [r15_648_TrROS_Hall],1.99 ± 0.25 kcal/mol,1.78 ± 0.27 kcal/mol,1.82 ± 0.067 kcal/mol
SAGGSAGGSAGGKVTKVILYPLPGGKVRLIIYGDDGKPYFFETSFEDLKNFPNIPFIILPSAGGSAGGSAGG [r7_238_TrMRF],2.11 ± 0.073 kcal/mol,2.27 ± 0.049 kcal/mol,2.19 ± 0.069 kcal/mol
SAGGMTLEITITFPGPEMLEEAKKIIDELGIELVNPTPNSLTVKAKGPEEVAKIKEEAKKLGFTVTGSAGGS [r16_88_JUSTAS],3.13 ± 0.14 kcal/mol,3.19 ± 0.086 kcal/mol,2.92 ± 0.21 kcal/mol
SAGSNKPIKLKAIIEKPKEKKEIEIEIDPNESIESALKKILEKLEPEWKIVIELPNGIKIEFPPSKEMYSAG [r5_77_TrMRF],0.91 ± 0.15 kcal/mol,0.0227 ± 0.18 kcal/mol,1.37 ± 0.083 kcal/mol
SYDHMRKWIKQAAQERGLKVTNIDIEPTPKTNTFKMSIEIPNGREINFEFQHDKNGGWQFTIQQIKNALKSA [r9_85_TrROS],2.69 ± 0.2 kcal/mol,2.8 ± 0.039 kcal/mol,2.07 ± 0.084 kcal/mol
SAGGSAGGSAGMEVFKSADGKRLLIRAKNGKVAEFDVETGELKFSKENLSPEDIEIVEVPSAGGSAGGSAGG [r17_174_TrROS_Hall],0.72 ± 0.22 kcal/mol,1.05 ± 0.14 kcal/mol,0.385 ± 0.2 kcal/mol
SAMKLPPGVEAEVLEVTVDEEVTITIKLEDETVVIVNEKTGEVTVIKPGETVTITMKPGEKLRIIVIKPSAG [r14_385_TrROS_Hall],2.58 ± 0.24 kcal/mol,1.65 ± 0.047 kcal/mol,3.2 ± 0.28 kcal/mol
SAGGDTIMIPIRGKGSLEQAKEWAKEIAREFYREGWKNIKISVWVYDKENGEPVYRKEAEIPIKPGDSAGGS [r8_33_TrROS],1.94 ± 0.22 kcal/mol,2.14 ± 0.18 kcal/mol,1.63 ± 0.11 kcal/mol
SAGGSAGGSAGGSPFTIKIKMEQPNGRKRTYTIEGEGDLDQIAKELEKHYPGRIKDIEISAGGSAGGSAGGS [r4_412_TrROS],0.548 ± 0.27 kcal/mol,0.783 ± 0.23 kcal/mol,-0.101 ± 0.31 kcal/mol
SAGGERKVKIEVMWNPDDPNYYMISVKFPGQERQFMIDPNDPERIIEFLEDLLGPGYKVDDIEIHPFRSAGG [r13_519_TrROS],1.67 ± 0.051 kcal/mol,1.61 ± 0.053 kcal/mol,1.562 ± 0.012 kcal/mol
SAGGSAGGSWYLRIEYMNGKEREFPFPPDMPGQPAEEIADKLGSPNMKVEFYDPEGEPREFDISAGGSAGGS [r12_411_TrROS],0.726 ± 0.18 kcal/mol,0.754 ± 0.13 kcal/mol,0.589 ± 0.071 kcal/mol
SAGGSPSITVSESSDPATGTRTLTITVPSSAPSATLNIVVSGSGPPVSSKTVTVPPGTTVTITYTTTSAGGS [r16_412_JUSTAS],2.61 ± 0.056 kcal/mol,2.84 ± 0.049 kcal/mol,2.2 ± 0.06 kcal/mol
SAGGSAGGSASKPYTITLPGNYRIEVYELPDGTYLARIYFPDKPGYYALALLTDNSIYIFPSAGGSAGGSAG [r3_170_TrMRF],3.47 ± 0.068 kcal/mol,3.691 ± 0.019 kcal/mol,3.05 ± 0.07 kcal/mol
SAGGSAGGSASPRTYKYKFTIKYPDGSTSEYEIVDEEDKAKEKIKKEYGAEEIELEIEPEESAGGSAGGSAG [r3_220_JUSTAS],0.637 ± 0.28 kcal/mol,1.39 ± 0.19 kcal/mol,-0.218 ± 0.41 kcal/mol
SAGGSAGGSAGEPVEIEIKIKVEVNGKTYEITAKLEVYKNEDGSYEVKLYAPPEAITEVESAGGSAGGSAGG [r11_816_TrROS_Hall],2.7 ± 0.24 kcal/mol,2.99 ± 0.09 kcal/mol,2.47 ± 0.21 kcal/mol
SAGGSAGGSADNWFIQIKWRHPENGKKRTLHIPFKTPWDVEEIVEELAPPGMDEVEVKIYPFSAGGSAGGSA [r18_258_TrROS],1.03 ± 0.061 kcal/mol,1.25 ± 0.091 kcal/mol,0.707 ± 0.051 kcal/mol
SAGGSMELKPGDSIEFPENIPLDEIIELAKKIAEEFNFEGIEDIENPSEGFYRIRAITPDGRPIEISAGGSA [r2_168_TrMRF],0.0617 ± 0.18 kcal/mol,0.141 ± 0.18 kcal/mol,-0.147 ± 0.23 kcal/mol

Sequence,folding stability dG unfold [1],folding stability dG unfold [2],folding stability dG unfold [3]
SAGGSAGGSAGKKKIIILINENMKEEEIVDYIKKKYGKNVKIEEIIPISPNIKIIKVIIDSAGGSAGGSAGG [r11_580_TrMRF],4.02 ± 0.14 kcal/mol,4.01 ± 0.17 kcal/mol,3.96 ± 0.12 kcal/mol
SAGGSAGGSAKYKPIGELEFEFENGIRLRVTFYEGEGEKIAIVEIEIPEPSLEEAIKILESSAGGSAGGSAG [r3_158_TrMRF],2.56 ± 0.09 kcal/mol,2.79 ± 0.037 kcal/mol,2.14 ± 0.095 kcal/mol
SSSIKTSTTTSTEPATGTTTTTTTVTYPDGTTTTTTTTTLPDGTTTVTTTTTPPDGSVTSTTTTLTSLTTTS [r1_461_JUSTAS],0.904 ± 0.17 kcal/mol,0.655 ± 0.043 kcal/mol,1.24 ± 0.1 kcal/mol
SAGGMLKIKVELFYPDGSTRTLPVPEEIQKEIVEALKKGEKIPEKPKKELEDIAKKEGYTIKIIELLSAGGS [r8_159_JUSTAS],1.3 ± 0.18 kcal/mol,1.41 ± 0.11 kcal/mol,0.751 ± 0.051 kcal/mol
SAGGPFYLRIKIVDEDGKEITYMFPAPADEAEEEIEELLPGWPLKIDEVERFPGEPGYIMVTIKIPPNSAGG [r13_832_TrROS],1.97 ± 0.12 kcal/mol,2.07 ± 0.17 kcal/mol,1.63 ± 0.051 kcal/mol
SAGGSAGGSAGAPTGFIRVRVEFVTPDGQPAEADFTVPASLVDAVFRAARETGARVSLEGSAGGSAGGSAGG [r11_603_TrMRF],1.2 ± 0.068 kcal/mol,1.65 ± 0.074 kcal/mol,0.504 ± 0.1 kcal/mol
SAGGSAEVERFEIPVTSEEELEKLIEELKKAPGVLSVEKTPDGTLVVTVPKGKSDIVEEAAKKAGLSAGGSA [r15_834_JUSTAS],2.97 ± 0.09 kcal/mol,3.17 ± 0.11 kcal/mol,2.7 ± 0.12 kcal/mol
SWYHIQFWLEGNSIEELMKWAKELAKQGNFEITKISNEHMHITIEIKLKPPPPPPPPPPKEEYDGDGKPKSA [r9_830_TrROS],2.22 ± 0.46 kcal/mol,2.37 ± 0.19 kcal/mol,2.53 ± 0.56 kcal/mol
SAGGKNLKPIGTVTLTNPKGEKVEIVEFEGPVFVVLTPKDGSKKIVSAEGKSLEEILKELEKEGYEVEPSAG [r5_613_TrMRF],1.76 ± 0.15 kcal/mol,2.15 ± 0.081 kcal/mol,1.22 ± 0.061 kcal/mol
SAKPPVIVIRIEKKEDGTYRVTIEVDGKEIEIEVPEGTSLEEILKKLAEELGVEVEVVEVKDGYLVIKPSAG [r14_404_TrROS_Hall],2.84 ± 0.26 kcal/mol,2.88 ± 0.092 kcal/mol,2.82 ± 0.2 kcal/mol
SAGGSAGGSPEAVVVQTPDGRWLVFLRGPDGSVRPIVVPAGRPEALREVAEELGLTVENLDPVSAGGSAGGS [r12_891_TrMRF],2 ± 0.065 kcal/mol,2.1 ± 0.04 kcal/mol,1.83 ± 0.052 kcal/mol
SAGGEPVLVPVKGTFENPELGVKVEVEAYFFPEFDFALVNVKVTPYSPDGKPLEVEGTFVVSVSELLKSAGG [r13_807_TrMRF],2.75 ± 0.12 kcal/mol,3.16 ± 0.086 kcal/mol,2.02 ± 0.082 kcal/mol
SAGGSAGGSAMTITKTITFSSKEEAEKFVKELEEKGNITITMTYEKLPSGKYKVTVTITKPSAGGSAGGSAG [r3_273_JUSTAS],3.68 ± 0.2 kcal/mol,3.71 ± 0.049 kcal/mol,3.62 ± 0.21 kcal/mol
SAGGKKIIIVIGSPEEVERLKELFPDEEVITLPREALENPEVLKELIKELEEKGIEVEIIIPPGVKPSAGGS [r8_376_TrROS_Hall],3.73 ± 0.44 kcal/mol,1.94 ± 0.26 kcal/mol,3.82 ± 0.37 kcal/mol
SAGGSVEEIAEELAKQPSYTKVTVTLFVDPDGTARVVITDVENGKTYTVPLPPAATPVGTLTLPVESAGGSA [r2_74_JUSTAS],1.63 ± 0.083 kcal/mol,1.68 ± 0.046 kcal/mol,1.56 ± 0.026 kcal/mol
SAEPPWYWIIKIEFPNGKPIVFMMDDPEEARERFEEKLRKEFPDGMKIESIPITPNDMDSPEEALERIKSAG [r14_900_TrROS],1.75 ± 0.48 kcal/mol,1.62 ± 0.16 kcal/mol,1.8 ± 0.27 kcal/mol
SAGGSAGGSKPRLVLEIKIKAESEEEAREEVEKALQEKFGLKIKSVEIEREEDYITVRVEIEPSAGGSAGGS [r12_265_TrROS_Hall],1.92 ± 0.23 kcal/mol,2 ± 0.061 kcal/mol,2.26 ± 0.081 kcal/mol
SAGGSAGGSAMFPDNTTVIEKEVPSSDVESAIEEIKKEYGVENYEVTTEPRPGTVKITVTIKPSAGGSAGGS [r12_929_JUSTAS],1.53 ± 0.093 kcal/mol,1.34 ± 0.038 kcal/mol,1.65 ± 0.064 kcal/mol
SADPSRGMTLTVETKELPGKGLLLVTITTSGTVEEALAYVEELAKELGAEIEILEVNENTIVVKLKVLKSAG [r14_172_JUSTAS],2.49 ± 0.045 kcal/mol,2.766 ± 0.014 kcal/mol,1.97 ± 0.026 kcal/mol
SAGGMRVERSTSPSGEPVLLITLYLPDGTRVAEAPLRLDPARGGLTEEELEAVLKEIDLPEDVEVELRSAGG [r13_479_JUSTAS],0.482 ± 0.14 kcal/mol,0.468 ± 0.16 kcal/mol,0.517 ± 0.11 kcal/mol
SAGGSAGGSAGIIVRLPDGGWLIIDITMTRKYPPPDGKPKKVEFEFTIIISPKSGKIRIVSAGGSAGGSAGG [r11_271_TrROS],3.01 ± 0.26 kcal/mol,3.21 ± 0.15 kcal/mol,2.94 ± 0.2 kcal/mol
